Legend:
[1] = biological target: human PD-1 on cells (HEK-PD-1 reporter cells; activated PBMC) (human, UniProt Q15116 25-288); test: cell-based or functional assay
[2] = biological target: T1, human IL-2 receptor (IL-2Rα, IL-2Rβ, IL-2Rγ) (human, UniProt P01589 22-272; P14784 27-551; P31785 23-369); test: cell-based or functional assay
T1 sequence (looked up) 1: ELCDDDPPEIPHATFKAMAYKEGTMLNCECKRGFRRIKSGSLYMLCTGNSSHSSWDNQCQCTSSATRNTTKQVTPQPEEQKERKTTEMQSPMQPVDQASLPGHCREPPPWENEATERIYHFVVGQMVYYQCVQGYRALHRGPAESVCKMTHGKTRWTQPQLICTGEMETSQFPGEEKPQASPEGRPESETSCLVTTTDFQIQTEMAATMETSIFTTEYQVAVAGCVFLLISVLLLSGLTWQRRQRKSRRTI
T1 sequence (looked up) 2: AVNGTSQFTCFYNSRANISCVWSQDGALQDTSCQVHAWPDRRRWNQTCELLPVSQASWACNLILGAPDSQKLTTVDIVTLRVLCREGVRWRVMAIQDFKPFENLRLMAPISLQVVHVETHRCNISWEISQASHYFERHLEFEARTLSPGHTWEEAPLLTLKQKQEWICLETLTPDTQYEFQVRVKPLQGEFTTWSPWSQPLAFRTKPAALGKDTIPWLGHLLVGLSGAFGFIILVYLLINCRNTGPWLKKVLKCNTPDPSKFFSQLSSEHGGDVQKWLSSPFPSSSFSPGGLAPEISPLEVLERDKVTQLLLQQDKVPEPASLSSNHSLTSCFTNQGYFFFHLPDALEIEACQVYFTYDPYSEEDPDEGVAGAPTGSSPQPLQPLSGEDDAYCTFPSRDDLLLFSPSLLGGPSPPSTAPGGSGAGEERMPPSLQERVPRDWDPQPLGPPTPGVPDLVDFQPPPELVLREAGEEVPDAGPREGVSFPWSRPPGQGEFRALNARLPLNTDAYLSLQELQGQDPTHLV
T1 sequence (looked up) 3: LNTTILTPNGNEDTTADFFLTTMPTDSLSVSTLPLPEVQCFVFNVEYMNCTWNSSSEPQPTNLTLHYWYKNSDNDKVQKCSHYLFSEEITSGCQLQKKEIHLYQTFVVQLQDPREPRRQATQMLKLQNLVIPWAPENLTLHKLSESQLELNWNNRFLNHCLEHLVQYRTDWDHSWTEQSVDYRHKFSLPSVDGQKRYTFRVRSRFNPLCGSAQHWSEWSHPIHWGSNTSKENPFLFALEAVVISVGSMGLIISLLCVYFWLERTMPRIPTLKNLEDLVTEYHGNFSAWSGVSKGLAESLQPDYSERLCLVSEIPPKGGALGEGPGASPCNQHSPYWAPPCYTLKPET

[3] = biological target: T1, human IL-2 receptor (IL-2Rα, IL-2Rβ, …); test: FACS on HEK-Blue IL-2 cells (IL-2 receptor, no PD-1)

Sequence of human PD-1 on cells (HEK-PD-1 reporter cells; activated PBMC) (Q15116 25-288): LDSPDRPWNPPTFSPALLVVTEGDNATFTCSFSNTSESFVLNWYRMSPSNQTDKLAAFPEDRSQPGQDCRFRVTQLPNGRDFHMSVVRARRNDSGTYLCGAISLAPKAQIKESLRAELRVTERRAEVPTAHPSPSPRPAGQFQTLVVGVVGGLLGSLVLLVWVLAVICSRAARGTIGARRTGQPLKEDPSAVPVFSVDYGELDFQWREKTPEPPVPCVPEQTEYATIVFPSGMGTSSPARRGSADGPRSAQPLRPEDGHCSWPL

B1: IL-2(R38D/K43E/E61R)/PD-L2-Fc immunomodulatory molecule (Fc fusion)
chain 1: LFTVTVPKELYIIEHGSNVTLECNFDTGSHVNLGAITASLQKVENDTSPHRERATLLEEQLPLGKASFHIPQVQVRDEGQYQCIIIYGVAWDYKYLTLKVKASYRKINTHILKVPETDEVELTCQATGYPLAEVSWPNVSVPANTSHSRTPEGLYQVTSVLRLKPPPGRNFSCVFWNTHVRELTLASIDLQSQMEPRTHPTGGGGSAPTSSSTKKTQLQLEHLLLDLQMILNGINNYKNPKLTDMLTFEFYMPKKATELKHLQCLERELKPLEEVLNLAQSKNFHLRPRDLISNINVIVLELKGSETTFMCEYADETATIVEFLNRWITFCQSIISTLTDKTHTCPPCPAPEDEGGPSVFLFPPKPKDTLMISRTPEVTCVVVDVSHEDPEVKFNWYVDGVEVHNAKTKPREEQYNSTYRVVSVLTVLHQDWLNGKEYKCKVSNKALPAPIEKTISKAKGQPREPQVYVYPPSREEMTKNQVSLTCLVKGFYPSDIAVEWESNGQPENNYKTTPPVLDEDGSFALVSKLTVDKSRWQQGNVFSCSVMHEALHNHYTQKSLSLSPGK
chain 2: LFTVTVPKELYIIEHGSNVTLECNFDTGSHVNLGAITASLQKVENDTSPHRERATLLEEQLPLGKASFHIPQVQVRDEGQYQCIIIYGVAWDYKYLTLKVKASYRKINTHILKVPETDEVELTCQATGYPLAEVSWPNVSVPANTSHSRTPEGLYQVTSVLRLKPPPGRNFSCVFWNTHVRELTLASIDLQSQMEPRTHPTGGGGSDKTHTCPPCPAPEKKGGPSVFLFPPKPKDTLMISRTPEVTCVVVDVSHEDPEVKFNWYVDGVEVHNAKTKPREEQYNSTYRVVSVLTVLHQDWLNGKEYKCKVSNKALPAPIEKTISKAKGQPREPQVYVLPPSREEMTKNQVSLLCLVKGFYPSDIAVEWESNGQPENRYMTWPPVLDSDGSFFLYSKLTVDKSRWQQGNVFSCSVMHEALHNHYTQKSLSLSPGK
notes: also called ligand-IL-2 mutant-PD-L2-Fc; IW-#11
[1]
  Percent IL-2 signal transduction (HEK-PD-1-IL-2 reporter assay): 43.5%
[2]
  Percent IL-2 signal transduction (HEK-IL-2 reporter assay): 2.4%
[3]
  binding result: no binding

From patent US20240392004A1 (IMMUNOWAKE, published 2024)
